This test deals with Linear di-ubiquitin (UniProt P0CG48 1-76; P0CG48 1-76). The test is described as follows: crystal structure.

As to QRSSAETSELREALLKIFPDSEQKLKIDQILAAHPYMKDLNALSALVLD (domain or fragment, UniProt Q6A037 845-893, looked up) [N4BP1 CUE-like domain (Q845-D893)], the binding result was “binds”.

For the origin of these results see paper PMC11096006 (Immunity, 2024).
